Data published in patent publication US20250388641A1 (CUGENE, published 2025).

T1: huIL-15Rβ-6His (human, UniProt P14784 27-240, limits assumed)
T1 construct: Coated on the ELISA plate; also called hull-15Rβ-6His; IL-15Rβ subunit
T1 sequence: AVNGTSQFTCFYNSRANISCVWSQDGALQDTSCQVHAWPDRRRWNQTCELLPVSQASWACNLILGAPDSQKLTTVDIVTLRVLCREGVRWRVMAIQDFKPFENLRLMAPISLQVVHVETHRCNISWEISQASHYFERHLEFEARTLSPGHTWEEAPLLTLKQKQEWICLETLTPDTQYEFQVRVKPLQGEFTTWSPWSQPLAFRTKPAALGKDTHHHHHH

B1: P-0178, IL-15/IL-15Rα heterodimeric Fc fusion, IL-15i3 (… insertion after N95) (Fc fusion)
chain 1: DKTHTCPPCPAPEAAGAPSVFLFPPKPKDTLMISRTPEVTCVVVDVSHEDPEVKFNWYVDGVEVHNAKTKPREEQYNSTYRVVSVLTVLHQDWLNGKEYKCKVSNKALPAPIEKTISKAKGQPREPQVYTLPPCREEMTKNQVSLSCAVKGFYPSDIAVEWESNGQPENNYKTTPPVLDSDGSFFLVSKLTVDKSRWQQGNVFSCSVMHEALHNHYTQKSLSLSPGEPKSSDKTHTSPPSPNWVNVISDLKKIEDLIQSMHIDATLYTESDVHPSCKVTAMKCFLLELQVISLESGDASIHDTVENLIILANNSLSSNGNVTESGCKECEELEEKNGSSGSSGGSIKEFLQSFVHIVQMFINTS
chain 2: DKTHTCPPCPAPEAAGAPSVFLFPPKPKDTLMISRTPEVTCVVVDVSHEDPEVKFNWYVDGVEVHNAKTKPREEQYNSTYRVVSVLTVLHQDWLNGKEYKCKVSNKALPAPIEKTISKAKGQPREPQVCTLPPSREEMTKNQVSLWCLVKGFYPSDIAVEWESNGQPENNYKTTPPVLDSDGSFFLYSKLTVDKSRWQQGNVFSCSVMHEALHNHYTQKSLSLSPGEPKSSDKTHTSPPSPITCPPPMSVEHADIWVKSYSLYSRERYICNSGFKRKAGTSSLTECVLNKATNVAHWTTPSLKCIRDPALVHQRPAPP
B2: P-0181, IL-15/IL-15Rα heterodimeric Fc fusion, IL-15m3 (Q108S, D30T, V31Y, H31E) (Fc fusion)
chain 1: DKTHTCPPCPAPEAAGAPSVFLFPPKPKDTLMISRTPEVTCVVVDVSHEDPEVKFNWYVDGVEVHNAKTKPREEQYNSTYRVVSVLTVLHQDWLNGKEYKCKVSNKALPAPIEKTISKAKGQPREPQVYTLPPCREEMTKNQVSLSCAVKGFYPSDIAVEWESNGQPENNYKTTPPVLDSDGSFFLVSKLTVDKSRWQQGNVFSCSVMHEALHNHYTQKSLSLSPGEPKSSDKTHTSPPSPNWVNVISDLKKIEDLIQSMHIDATLYTESTYEPSCKVTAMKCFLLELQVISLESGDASIHDTVENLIILANNSLSSNGNVTESGCKECEELEEKNIKEFLQSFVHIVSMFINTS
chain 2: B1 chain 2

Columns and labels:
[1] = target: T1, huIL-15Rβ-6His; assay: ELISA binding EC50 relative to wild type P-0153
Experimental: (§1) The binding activity was tested in ELISA assay. Briefly, Nunc Maxisorp (ThermoFisher) plates were coated overnight at 4° C. with hull-15Rβ-6His at 1 ug/well (100 μl/well) in bicarbonate buffer pH 9.4 (ThermoFisher). After washing 3 times with PBS/0.05% Tween20, plates were incubated with SuperBlock (300 μl/well) at room temperature for 2 hrs. to block nonspecific binding. After washing, IL-15 compounds each at 3-fold serial dilutions with blocking buffer were added to the plates (100 μl/well) and incubated at room temperature for 1 hr. After washing, the Fc fusions were detected by 1 hr. incubation at room temperature with a goat anti-human IgG Fc secondary antibody conjugated with horseradish peroxidase (HRP) at 1:5000 dilution in blocking buffer (ThermoFisher) (100 μl/well). After washing, TMB substrate (ThermoFisher) was added (100 μl/well). Plates were sealed and incubated 5-20 min at room temperature in dark. Reaction was stopped by adding 2N sulfuric acid (Ricca Chemical) (50 μL/well) and absorbance was read at 450-590 nm.

[2] = target: T1, huIL-15Rβ-6His; assay: ELISA, huIL-15Rβ-6His coated on plate, anti-human IgG Fc-HRP detection
Experimental: as §1

[3] = target: T1, huIL-15Rβ-6His; assay: ELISA binding EC50 relative to wild type (3.9 nM)
Experimental: as §1

[4] = target: T1, huIL-15Rβ-6His; assay: ELISA binding to IL-15Rβ, relative to wild type (repeats Table 3)
Experimental: as §1

Binder	Fold change [1] [fold]	EC50 [2] [nM]	Fold change [3] [fold]	Fold change in binding EC50 [4] [fold]
B1	36	23.1	–	–
B2	–	5.57	1.4	1.4
